Among the data in publication PMC6186785, “Discovery of Bacterial Deaminases That Convert 5-Fluoroisocytosine Into 5-Fluorouracil” (Frontiers in Microbiology, 2018) are Km and kcat values, retold here.

Common to all, as to assay: purified protein
Substrate in data set [1]: Nc1nccc(O)n1
To be noted: 50 mM Tris-HCl pH 8.0, 21 °C, substrate range 5–700 μM.

Substrate in data set [2]: Nc1ncc(F)c(=O)[nH]1
The class given is biochemical, uncultured Hafnia sp. To be noted: 50 mM Tris-HCl pH 8.0, 21 °C.

Substrate in data set [3]: Nc1ncc(F)c(=O)[nH]1
The class given is biochemical, uncultured Pseudomonas sp. Conditions: 50 mM Tris-HCl pH 8.0, 21 °C, sentence prints 'isocytosine', evident slip for 5-fluoroisocytosine (second URA3 set, after Vcz 5-fluoroisocytosine).

B1: Vcz deaminase (uncultured Hafnia sp.; H2D) (protein)
chain: MDKRTLLFKNAELLVTMDDERREIRGGCLLVEGNRIVAVGGDELCAAPADEEIDLRGHIVIPGLINTHHHMFQSLTRVIPDAQDGELFDWLNNLYPIWAGLTPEMIRISTQTAMAELMLSGCTTSSDHLYVYPNGCRLDDSIDGAREIGMRFHACRGSMSVGRSKGGLPPDELVENEQAILEDSLRLIHSYHDAQRYSMLRIALAPCSPFSVSRELMVKTAQMAREQGVSLHTHLAENDSDVSYSQTHFGMTPAQYAEDLGWVGSDVWHAHCVKLDRAGISLFARTGTGVAHCPCSNMRLASGIAPIRAMLDEGVSVGLGVDGSASNDAGNMIAETRQAMLLQRVGFGPDAMNARQALEIATRGGAKVLNRDDIGYLATGMAADFVAFDLNTLNLAGAKHDPLAALVFCTPGNVAFSVINGQVVIREGVLQTIDLPSVVQQHNRLACLLVNRHRL
notes: full-length ORF, C-terminal 6xHis (pET28a NcoI/XhoI), E. coli BL21(DE3); primers encode N-terminus MDKRTL and C-terminus NRHRL before LE-tag
For orientation: Km means the substrate concentration at which the rate is half of its maximum. As usually defined, the kcat is the number of substrate molecules converted per active site and unit of time at saturation. Regarding B1, in the data set “purified protein [1]”, the Michaelis-Menten constant (Km) is 1860 ± 45 µM and the kcat came to 1.64 ± 0.06 s⁻¹. In “purified protein [2]”, the Km was found to be 1270 ± 128 µM and the catalytic constant (kcat) came to 0.1 ± 0.007 s⁻¹.

B2: URA3 deaminase (uncultured Pseudomonas sp.) (protein)
chain: MAKTLLVKNAELLVTMDGQRREIRQGGMFIEDNRIVQVGPAAELPQTADEVLDLKGKVVIPGLVNTHHHMYQSLTRVVPAAQDGELFNWLTNLYPIWARLTPEMIQVSTQTAMAELILSGCTTSSDHLYIYPNGCKLDDSIHAAGEIGMRFHAARGSMSVGRSQGGLPPDSVVEKEADILKESQRLIEDYHDAAHGSMLRVVVAPCSPFSVSRDLMREAAVLARNYGVSLHTHLAENVNDIAYSREKFGMTPAEYAEDLGWVGHDVWHAHCVQLDEHGIELFARTGTGVAHCPCSNMRLASGIAPVRRMRDAGVPVGLGVDGSASNDGASMIGEVRQALLLQRVGFGPDAMTAREALEIATLGGAKVLNRDDIGALAPGMVADFVAFDLNHIAYAGALHDPLAALVFCTPTHVSTSVINGKVVVRDGQLVTVDLPRVLERHNQLARQLVMGE
notes: full-length ORF, C-terminal 6xHis (pET21b NdeI/XhoI), E. coli BL21(DE3); primers encode N-terminus MAKTLL and C-terminus VMGE before LE-tag
On to B2, for which, in “purified protein [1]”, the Km came to 1085 ± 120 µM and the kcat turned out to be 2.00 ± 0.15 s⁻¹. For the same protein, in “purified protein [3]”, the Km was determined as 1330 ± 305 µM and the kcat was 0.02 ± 0.003 s⁻¹.
